The test addresses T1, recombinant human MAS1 receptor (human), P04201.
T1 chain: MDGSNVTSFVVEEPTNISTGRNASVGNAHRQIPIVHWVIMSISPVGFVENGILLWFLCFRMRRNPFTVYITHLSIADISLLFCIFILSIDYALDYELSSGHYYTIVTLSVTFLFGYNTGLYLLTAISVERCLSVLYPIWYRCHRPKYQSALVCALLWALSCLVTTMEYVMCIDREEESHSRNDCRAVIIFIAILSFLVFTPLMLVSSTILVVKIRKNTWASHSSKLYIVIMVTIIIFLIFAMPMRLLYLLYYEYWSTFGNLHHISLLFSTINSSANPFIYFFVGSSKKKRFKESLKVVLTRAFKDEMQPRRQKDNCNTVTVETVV
As to the kind of experiment: cell-based or functional assay.

Here are results for one molecule from US20190359674A1.

Positions of bridges follow the written chain, without caps; N, C: chain ends. Non-standard residues stand in square brackets, D forms with d. Dap = NC[C@H](N)C(=O)O

B1: cyclotide MCo-AT1-7 (designed binder)
chain: GGVCPKILQRCRRDSDCPGACICRGNGYCGSG[Dap]RVYIHE-OH
modifications: disulfide 11-23, 17-29, 4-21; lactam N-39 (inferred); also: Gly32 joined to Dap33 β-amino group by isopeptide bond, Dap33 α-amino group free
B1: the activity in the MAS1 activation (NO release) assay relative to peptide AT1-7, at 10 nM (% of AT1-7 activity) stood at 90.
